T1: V. carteri f. nagariensis LOX (D8U0N8) (Volvox carteri, UniProt D8U0N8)
T1 construct: gene VOLCADRAFT_105417; synthesized gene in pET-28a(+), expressed in E. coli ER2566
T1 sequence (D8U0N8 1-1056): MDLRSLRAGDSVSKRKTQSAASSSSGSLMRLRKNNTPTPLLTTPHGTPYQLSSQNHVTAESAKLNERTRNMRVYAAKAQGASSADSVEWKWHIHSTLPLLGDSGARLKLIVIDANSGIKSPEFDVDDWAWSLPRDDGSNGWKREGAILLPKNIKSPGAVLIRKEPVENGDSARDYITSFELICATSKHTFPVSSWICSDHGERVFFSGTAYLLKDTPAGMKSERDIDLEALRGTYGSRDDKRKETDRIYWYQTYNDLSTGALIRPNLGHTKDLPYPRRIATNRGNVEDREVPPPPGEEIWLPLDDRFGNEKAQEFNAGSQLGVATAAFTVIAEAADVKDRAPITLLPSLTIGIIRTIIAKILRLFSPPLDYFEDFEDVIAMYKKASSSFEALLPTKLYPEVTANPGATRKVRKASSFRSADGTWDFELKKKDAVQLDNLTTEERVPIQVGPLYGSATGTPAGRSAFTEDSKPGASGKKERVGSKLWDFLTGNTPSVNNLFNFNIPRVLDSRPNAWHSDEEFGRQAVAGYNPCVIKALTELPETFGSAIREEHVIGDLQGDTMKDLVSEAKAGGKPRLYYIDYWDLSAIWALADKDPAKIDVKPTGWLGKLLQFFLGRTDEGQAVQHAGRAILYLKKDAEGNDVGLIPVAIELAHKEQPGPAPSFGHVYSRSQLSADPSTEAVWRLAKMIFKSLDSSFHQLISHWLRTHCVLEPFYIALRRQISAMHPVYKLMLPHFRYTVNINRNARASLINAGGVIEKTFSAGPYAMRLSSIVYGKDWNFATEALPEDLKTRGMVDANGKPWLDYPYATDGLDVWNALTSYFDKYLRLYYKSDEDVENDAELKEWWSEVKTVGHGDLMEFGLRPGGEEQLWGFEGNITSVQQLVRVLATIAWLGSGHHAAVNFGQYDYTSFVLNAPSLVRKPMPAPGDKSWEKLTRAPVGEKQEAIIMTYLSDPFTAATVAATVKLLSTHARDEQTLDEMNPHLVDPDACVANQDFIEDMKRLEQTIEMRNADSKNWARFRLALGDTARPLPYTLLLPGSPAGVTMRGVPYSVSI

B1: C. incerta 15S-LOX (Chlamydomonas incerta) (protein)
chain: MNGAHSPGEVAVWKASIESSAPLLGDTGTRLEIVVIDLDTDRRSEPTNVDSWRPPVLESGPGSSTARSGASSGSGTSGWKREGRLPLPADFLTPGAVLVRKSRTVDGNASVDFIGTIKLVSATKVFHFPVHSWVSSDHDWRVFFEGTAYLPAHTPPSLRDERQRELQELQGTPATRTLERRPADRIYWYQTYDDLSSAGEGGYRPALGATARRPYPRRIATNRGAADGHPDREKPPVKAGDKPWLPYDEQFSFDKAADFNGDTLTAALPAAFSFIAEAGDQRHLTWLNLLPTAVHGLVRNVLRAVLGYAEPPAANFDSFEDVLAFFGEDAASRGSSMAPTQLYPAGQEAAMKGFGAPHDPRNPAPFKTASGAWDFRLNSAAAAAINDQIAADRVGPVPDSATGGPSSGAATAATAFAATAAAATAAGAPAAAITAPPQPGVPNLIGLLGSAVWRRLTNDPSHDINDLLYFPVPRVVDGRPDAWYTDEEYGRQALAGYHPTAITALTQLPEAFGSAIRAHHVEAELQGSSLEALVAAAAGGAKPRLYLIDHWDLSAYWQEAEEEAEAARKAGRKPPSAVQHAGRCLFYLRKDEVTGEDTALVPIAIELAHPGTHKASNGTSAPLPPTAGEVYARSELVASPQTLAVWRLAKAVFRSLDTSIHQLVAHFNRTHAALEPFLIAMRRQMSVMHPITKLMLPHFRYTLNINRNARASLINAGGIIEKTFSAGPFAMRLASAVYGKSWTFAGQALPEDLRERGMLDAAGRPWLDYPFAIDGLDTWAALTAYFDQYVSLYYDGDGAVLEDGELQAWWDEVKTEGHPDIVAFGLKSEQQVWGFTGPIAKRSDLVHVLATIAWLASGHHAAVNFGQYDFTGLILNASSLVRRPMPAPKEPAYKELTGAALGPPQERVFMTYLADPFSAVQVLATVKLLSAHARDEHTLDEANDYIVDPAAREANRAFIAAVKQLESAIETRNADPANWARYGLAAGTAAPLPYTLLMASSPPGVTMRGVPYSVSI
notes: synthesized gene in pET-28a(+), E. coli ER2566, His-Trap purified, His6 tag kept; 1016 residues plus six His, 109,248 (kDa [sic]), dimer 219 kDa

Columns and labels:
[1] = biological target: T1, V. carteri f. nagariensis LOX (D8U0N8); test: product analysis after reaction with ARA; format: cell-based; details: enzyme preparation not stated; products HETE and DiHETE
purified protein [2] = substrate: CCCCC/C=C\C/C=C\C/C=C\C/C=C\CCCC(=O)O; test: purified protein; format: biochemical, Chlamydomonas incerta; details: 50 mM HEPPS pH 7.5, 35°C, 5 min, substrate 0.05-0.2 mM, product 15S-HETE (first oxygenation)
purified protein [3] = substrate: CC/C=C\C/C=C\C/C=C\C/C=C\C/C=C\CCCC(=O)O; test: purified protein; format: biochemical, Chlamydomonas incerta; details: 50 mM HEPPS pH 7.5, 35°C, 5 min, substrate 0.05-0.2 mM, product 15S-HEPA (first oxygenation)
purified protein [4] = substrate: CC/C=C\C/C=C\C/C=C\C/C=C\C/C=C\C/C=C\CCC(=O)O; test: purified protein; format: biochemical, Chlamydomonas incerta; details: 50 mM HEPPS pH 7.5, 35°C, 5 min, substrate 0.05-0.2 mM, product 17S-HDHA (first oxygenation)

Molecule | product analysis after reaction with ARA [1] | Km (purified protein [2]) | kcat (purified protein [2]) | kcat/Km (purified protein [2]) | Km (purified protein [3]) | kcat (purified protein [3]) | kcat/Km (purified protein [3]) | Km (purified protein [4]) | kcat (purified protein [4]) | kcat/Km (purified protein [4])
CCCCC/C=C\C/C=C\C/C=C\C/C=C\CCCC(=O)O [ARA] | only those from V. carteri f. nagariensis (D8U0N8) | – | – | – | – | – | – | – | – | –
B1 | – | 101 ± 0.02 µM | 149 ± 0.2 s⁻¹ | 1.47e+06 ± 100000 M⁻¹ s⁻¹ | 191 ± 0.1 µM | 143 ± 0.2 s⁻¹ | 750000 ± 100000 M⁻¹ s⁻¹ | 98.5 ± 0.1 µM | 121 ± 0.2 s⁻¹ | 980000 ± 100000 M⁻¹ s⁻¹
